One data set concerns the target T1, SSBP1 wild-type (Homo sapiens, UniProt Q04837 17-148).
T1 sequence: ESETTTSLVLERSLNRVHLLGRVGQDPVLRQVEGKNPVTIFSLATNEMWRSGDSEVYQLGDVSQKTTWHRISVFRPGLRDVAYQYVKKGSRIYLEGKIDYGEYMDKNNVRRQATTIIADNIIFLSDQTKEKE
Kind of data set: EMSA; probe 0.25 uM (far above Kd); legend gives protein 0-2 nM, main text figure 1 uM; units doubtful; 50 mM Tris pH 7.5, 150 mM NaCl, 10% glycerol, 30 min at room temperature; 2% agarose gel in 1x TBE. Conditions: protein: recombinant; tags: IMAC tag (probably His); chain copies: 4. (In general: A gel shift assay detects complexes by their altered migration in electrophoresis.)

Data set [1] deals with the molecule itself. Kind of data set: cross-linking; glutaraldehyde cross-linking of recombinant SSBP1 proteins, SDS-PAGE with Coomassie staining and SSBP1 immunoblot, band intensities quantified with ImageJ (n = 3). (In general: Immunoblotting shows a protein as a band on a membrane.)

Two molecules from article PMC11299580, “Discovery of novel disease-causing mutation in SSBP1 and its correction using adenine base editor to improve mitochondrial function” (Molecular Therapy. Nucleic Acids, 2023) can be followed below.

As usually defined, the Kd is the free concentration of one partner at which half of the binding sites on the other are occupied at equilibrium, for simple one-to-one binding. With GGACTATTTATTCAATATATTTAAGAACTAATTCCAGCTGAGCGCCGG (ssDNA) [EMSA ssDNA probe], the Kd with SSBP1 wild-type is 11.2 ± 0.89 nM.

B1: single-stranded DNA-binding protein 1 (SSBP1), wild-type recombinant protein (natural protein, human, UniProt Q04837 17-148, looked up)
chain: ESETTTSLVLERSLNRVHLLGRVGQDPVLRQVEGKNPVTIFSLATNEMWRSGDSEVYQLGDVSQKTTWHRISVFRPGLRDVAYQYVKKGSRIYLEGKIDYGEYMDKNNVRRQATTIIADNIIFLSDQTKEKE
notes: A human SSBP1 cDNA clone (Origene RC215106) is named only for expression in mammalian cells; also called wild-type SSBP1; source: E. coli BL21 (DE3), purified (HiTrap IMAC, dialysis, Superdex 200 SEC)
As for B1, the binding result in data set [1] is listed as “binds”.
